Consider one substance from article PMC3205248.

This assay has as its target His6-DIP1-c (Disconnected Interacting Protein 1, longest isoform) (Drosophila melanogaster). Nature of the assay: AUC.

For orientation: stoichiometry N means the number of molecules, sites or subunits per partner or assembly. In turn, “His6-DIP1-c (Disconnected Interacting Protein 1, longest isoform) (natural protein)” yielded a stoichiometry N of 2.
